Patent US20120058906A1 (published 2012)
Positions count from the first letter of the chain named. Each block holds one binder with its values, some of them ahead of it.

Legend:
[1] = biological target: T1, rHuman HGF R/c-MET/Fc Chimera, CF (R&D Systems Cat#358-MT/CF) (human, UniProt P08581 25-932); test: MSD ECL multi-spot plate; Fab 2.0 nM; blank spot 316
T1 construct: also called HGF R/Fc; hepatocyte growth factor receptor; Fc part of the bought chimera not given

[2] = biological target: T2, Recombinant Human DLL4 (R&D Systems Cat#1506-D4/CF) (human, UniProt Q9NR61 27-524); test: as above
T2 construct: also called delta-like protein 4

[3] = biological target: T3, rHuman Erythropoietin R/Fc Chimera, CF (R&D Systems Cat#963-ER) (human, UniProt P19235 25-250); test: MSD ECL titration, Fab 9.3 nM, blank 287
T3 construct: Bought Fc chimera; also called EPO R/Fc; EPOR; Fc part of the bought chimera not given
T3 sequence: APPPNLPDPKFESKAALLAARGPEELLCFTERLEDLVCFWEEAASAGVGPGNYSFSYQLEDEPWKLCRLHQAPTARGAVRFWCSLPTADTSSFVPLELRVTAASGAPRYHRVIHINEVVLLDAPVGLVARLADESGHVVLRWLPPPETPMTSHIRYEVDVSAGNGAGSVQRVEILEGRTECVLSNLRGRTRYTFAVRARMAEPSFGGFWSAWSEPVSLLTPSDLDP

[4] = biological target: T4, rHuman HGF R/c-MET/Fc Chimera, CF (R&D Systems Cat#358-MT/CF) (human, UniProt P08581 25-932); test: MSD ECL titration, Fab 9.3 nM, blank 287
T4 construct: Bought Fc chimera; also called HGF R/Fc; Fc part of the bought chimera not given

[5] = biological target: T5, Recombinant Human DLL4 (R&D Systems Cat#1506-D4/CF) (human, UniProt Q9NR61 27-524); test: MSD ECL titration, Fab 9.3 nM, blank 287
T5 construct: Bought recombinant protein; also called rHuman DLL4; delta-like protein 4

[6] = biological target: T6, rHuman P-Cadherin/Fc Chimera, CF (R&D Systems Cat#861-PC) (human, UniProt P22223 108-654); test: MSD ECL titration, Fab 9.3 nM, blank 287
T6 construct: Bought Fc chimera; Fc part of the bought chimera not given

[7] = biological target: T7, rHuman IGF-1 sR (insulin-like growth factor-1 soluble receptor), CF (R&D Systems Cat#391-GR) (human, UniProt P08069 31-932); test: MSD ECL titration, Fab 9.3 nM, blank 287
T7 construct: Bought soluble receptor; also called IGF-R1

[8] = biological target: T8, rHuman ErbB2/Fc Chimera, CF (R&D Systems Cat#1129-ER) (human, UniProt P04626 23-652); test: MSD ECL titration, Fab 9.3 nM, blank 287
T8 construct: Bought Fc chimera; also called HER2/neu; Fc part of the bought chimera not given

[9] = biological target: T9, rHuman EGF R/Fc Chimera, CF (R&D Systems Cat#344-ER) (human, UniProt P00533 25-645); test: MSD ECL titration, Fab 9.3 nM, blank 287
T9 construct: Bought Fc chimera; Fc part of the bought chimera not given

[10] = biological target: T10, rHuman CD44/Fc Chimera, CF (R&D Systems Cat#3660-CD) (human, UniProt P16070 21-220); test: MSD ECL titration, Fab 9.3 nM, blank 287
T10 construct: Bought Fc chimera; Fc part of the bought chimera not given

[11] = biological target: T11, rHuman Notch-1/Fc Chimera, CF (R&D Systems Cat#3647-TK) (human, UniProt P46531 19-526); test: MSD ECL titration, Fab 9.3 nM, blank 287
T11 construct: Bought Fc chimera; Fc part of the bought chimera not given

[12] = biological target: T12, rHuman Erythropoietin R/Fc Chimera, CF (R&D Systems Cat#963-ER) (human, UniProt P19235 25-250); test: ECL (MSD multi-spot), antigen on plate, Fab 10 nM
T12 construct: Bought Fc chimera; also called EPO R/Fc; Epo R; not shown: Fc of the bought chimera
T12 sequence: T3 sequence

[13] = biological target: T13, rHuman EGF R/Fc Chimera, CF (R&D Systems Cat#344-ER) (human, UniProt P00533 25-645); test: ECL (MSD multi-spot), antigen on plate, Fab 10 nM
T13 construct: Bought Fc chimera; also called ErbB-1; not shown: Fc of the bought chimera

[14] = biological target: T14, rHuman P-Cadherin/Fc Chimera, CF (R&D Systems Cat#861-PC) (human, UniProt P22223 108-654); test: ECL (MSD multi-spot), antigen on plate, Fab 10 nM
T14 construct: Bought Fc chimera; also called CDH3; not shown: Fc of the bought chimera

[15] = biological target: T15, rHuman IGF-1 sR (insulin-like growth factor-1 soluble receptor), CF (R&D Systems Cat#391-GR) (human, UniProt P08069 31-932); test: ECL (MSD multi-spot), antigen on plate, Fab 10 nM
T15 construct: Bought soluble receptor; also called IGF-R1

[16] = biological target: T16, rHuman ErbB2/Fc Chimera, CF (R&D Systems Cat#1129-ER) (human, UniProt P04626 23-652); test: ECL (MSD multi-spot), antigen on plate, Fab 10 nM
T16 construct: Bought Fc chimera; also called HER2/neu; not shown: Fc of the bought chimera

[17] = biological target: T17, rHuman HGF R/c-MET/Fc Chimera, CF (R&D Systems Cat#358-MT/CF) (human, UniProt P08581 25-932); test: ECL (MSD multi-spot), antigen on plate, Fab 10 nM
T17 construct: Bought Fc chimera; also called HGF R/Fc; not shown: Fc of the bought chimera

[18] = biological target: T18, rHuman Notch-1/Fc Chimera, CF (R&D Systems Cat#3647-TK) (human, UniProt P46531 19-526); test: ECL (MSD multi-spot), antigen on plate, Fab 10 nM
T18 construct: Bought Fc chimera; not shown: Fc of the bought chimera

[19] = biological target: T19, rHuman CD44/Fc Chimera, CF (R&D Systems Cat#3660-CD) (human, UniProt P16070 21-220); test: ECL (MSD multi-spot), antigen on plate, Fab 10 nM
T19 construct: Bought Fc chimera; not shown: Fc of the bought chimera

[20] = biological target: T20, Recombinant Human DLL4 (R&D Systems Cat#1506-D4/CF) (human, UniProt Q9NR61 27-524); test: ECL (MSD multi-spot), antigen on plate, Fab 10 nM
T20 construct: Bought recombinant protein; also called delta-like protein 4
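Further: blank spot per well as comparator with Hit at signal to blank ratio of 4 or more.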

- ECL signal [1]: 356 ECL signal
- ECL signal [2]: 605 ECL signal
B1: Fab VH1-8_IGHD2-2*01_IGHJ6*01 & L12_IGKJ1*01 (Fab, V domains shown)
VH: QVQLVQSGAEVKKPGASVKVSCKASGYTFTSYDINWVRQATGQGLEWMGWMNPNSGNTGYAQKFQGRVTMTRNTSISTAYMELSSLRSEDTAVYYCARGGYCSSTSCYADYYYYYGMDVWGQGTTVTVSS
VL: not shown

- ECL signal [3]: 306
- ECL signal [4]: 324
- ECL signal [5]: 13200
- ECL signal [6]: 452
- ECL signal [7]: 315
- ECL signal [8]: 354
- ECL signal [9]: 424
- ECL signal [10]: 396
- ECL signal [11]: 492
B2: Fab VH1-46_IGHD6-6*01_IGHJ1*01 & L6_IGKJ1*01 (Fab, V domains shown)
VH: QVQLVQSGAEVKKPGASVKVSCKASGYTFTSYYMHWVRQAPGQGLEWMGIINPSGGSTSYAQKFQGRVTMTRDTSTSTVYMELSSLRSEDTAVYYCAREEYSSSSAEYFQHWGQGTLVTVSS
VL: not shown
notes: Expressed in E. coli as Fab: heavy chain with CH1 plus Flag and His tags from Plasmid A, kappa light chain constant region from Plasmid C; also called Fab No. 1

- ECL signal [12]: 392 ECL signal
- ECL signal [13]: 207 ECL signal
- ECL signal [14]: 216 ECL signal
- ECL signal [15]: 152 ECL signal
- ECL signal [16]: 136 ECL signal
- ECL signal [17]: 136 ECL signal
- ECL signal [18]: 280 ECL signal
- ECL signal [19]: 212 ECL signal
- ECL signal [20]: 26900 ECL signal
B3: Fab VH1-46_IGHD6-6*01_IGHJ1*01_S102A_S103P_S104F & L6_IGKJ1*01_S28P (Fab, V domains shown)
VH: B2 VH with S102A, S103P, S104F
VL: EIVLTQSPATLSLSPGERATLSCRASQPVSSYLAWYQQKPGQAPRLLIYDASNRATGIPARFSGSGSGTDFTLTISSLEPEDFAVYYCQQRSNWPPWTFGQGTKVEIKR
notes: Fab
